Results taken from patent publication US20220313738A1 (NANJING LEGEND BIOTECH, published 2022).
Where a chain is given by its changes, count along the chain named.

Legend:
Experiment in all cases: cell-based or functional assay
[1] = target: M665 (CD8α SP-BCMA scFv-CD8α hinge-CD8α TM-ISD)
[2] = target: M666 (CD8α SP-BCMA scFv-CD8α hinge-CD8α TM-ISD)
[3] = target: M663 (CD8α SP-BCMA scFv-CD8α hinge-CD8α TM-ISD)

B1: wildtype SIV Nef (other)
chain: MGSSNSKRQQQGLLKLWRGLRGKPGADWVLLSDPLIGQSSTVQEECGKALKKSWGKGKMTPDGRRLQEGDTFDEWDDDEEEVGFPVQPRVPLRQMTYKLAVDFSHFLKSKGGLDGIYYSERREKILNLYALNEWGIIDDWQAYSPGPGIRYPRVFGFCFKLVPVDLHEEARNCERHCLMHPAQMGEDPDGIDHGEVLVWKFDPKLAVEYRPDMFKDMHEHAKR
With B1 as the binder, how does the “relative ISD-modified CAR positive rate (FACS), day 3, against empty vector control” value (shortened to “relative ISD-modified CAR positive rate”) [1] read?
Its value is 82.3%.

What about the “relative ISD-modified CAR positive rate” value [2] of the same binder?
The value was 57%.

What about the “relative ISD-modified CAR positive rate” value [3] of the same binder?
Its value is 46.7%.

B2: SIV Nef M116 (other)
chain: B1 chain with L178A, M179A
Which results are given for B2?
relative ISD-modified CAR positive rate (FACS), day 3, against empty vector control [1]: 70.3%; relative ISD-modified CAR positive rate (FACS), day 3, against empty vector control [2]: 56.2%; relative ISD-modified CAR positive rate (FACS), day 3, against empty vector control [3]: 50.9%
